Laboratory results published in patent US20250136721A1 (GlaxoSmithKline, published 2025).
Substitutions are numbered along the chain they refer to. Names and notes keep the numbering of the source. Values joined by “and” are separate entries in the source; they are usually repeats but may differ in a detail not shown here. Equal values may be shown once.

T1: human TNFR1 (on human cells) (human, UniProt P19438 30-455)
T1 sequence (looked up): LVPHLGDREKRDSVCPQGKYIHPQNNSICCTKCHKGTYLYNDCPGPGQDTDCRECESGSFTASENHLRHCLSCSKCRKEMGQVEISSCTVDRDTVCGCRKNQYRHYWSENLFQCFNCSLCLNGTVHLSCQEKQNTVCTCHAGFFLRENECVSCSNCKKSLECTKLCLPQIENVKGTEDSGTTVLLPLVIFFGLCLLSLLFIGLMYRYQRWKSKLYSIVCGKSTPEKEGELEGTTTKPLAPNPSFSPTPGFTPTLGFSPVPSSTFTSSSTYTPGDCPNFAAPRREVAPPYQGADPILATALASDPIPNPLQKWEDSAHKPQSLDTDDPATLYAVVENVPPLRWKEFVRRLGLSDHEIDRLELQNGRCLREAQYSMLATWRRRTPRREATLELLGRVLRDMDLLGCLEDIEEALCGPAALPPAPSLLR

T2: cynomolgus monkey TNFR1 (on monkey cells) (cynomolgus monkey, UniProt Q2PFV5 30-455)
T2 sequence: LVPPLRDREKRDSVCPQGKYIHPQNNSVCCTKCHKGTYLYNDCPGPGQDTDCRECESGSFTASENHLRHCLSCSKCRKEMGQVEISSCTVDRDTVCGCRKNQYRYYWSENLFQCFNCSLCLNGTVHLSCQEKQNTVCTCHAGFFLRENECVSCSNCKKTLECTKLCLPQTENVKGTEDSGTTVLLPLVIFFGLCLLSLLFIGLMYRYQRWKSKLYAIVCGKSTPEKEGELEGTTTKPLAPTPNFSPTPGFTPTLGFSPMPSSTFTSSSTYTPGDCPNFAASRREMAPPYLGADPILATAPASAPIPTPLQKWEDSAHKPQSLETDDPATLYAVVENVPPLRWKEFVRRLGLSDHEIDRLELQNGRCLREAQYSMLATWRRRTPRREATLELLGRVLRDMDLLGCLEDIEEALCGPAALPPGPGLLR

T3: Recombinant human TNFR1-Fc (human, UniProt P19438 30-211, limits assumed)
T3 construct: bought reagent; also called hTNFR1:Fc; not shown: Fc part; not described
T3 sequence (looked up): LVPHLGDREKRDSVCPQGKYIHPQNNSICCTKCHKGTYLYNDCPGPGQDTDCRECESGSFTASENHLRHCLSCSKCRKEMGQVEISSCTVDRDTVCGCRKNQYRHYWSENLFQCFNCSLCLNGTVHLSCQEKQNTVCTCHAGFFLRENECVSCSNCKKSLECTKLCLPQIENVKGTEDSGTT

T4: cynomolgus monkey TNFR1 (cynomolgus monkey, UniProt Q2PFV5 30-211)
T4 sequence: T3 sequence (looked up) with H4P, G6R, I28V, H105Y, S159T, I170T

B1: DOM1H-131-206 with a C-terminal alanine extension (other)
VH: EVQLLESGGGLVQPGGSLRLSCAASGFTFAHETMVWVRQAPGKGLEWVSHIPPDGQDPFYADSVKGRFTISRDNSKNTLYLQMNSLRAEDTAVYHCALLPKRGPWFDYWGQGTLVTVSSA
notes: VH dAb variant
B2: DOM1H-131-206 (other)
VH: EVQLLESGGGLVQPGGSLRLSCAASGFTFAHETMVWVRQAPGKGLEWVSHIPPDGQDPFYADSVKGRFTISRDNSKNTLYLQMNSLRAEDTAVYHCALLPKRGPWFDYWGQGTLVTVSS
notes: human anti-TNFR1 VH domain antibody (dAb); biotinylated or Sulfo-Tag labelled where it is the assay reagent
B3: DOM10H-53-567 (protein)
VH: GVQLLESGGGLVQPGGSLRLSCAASGFVFAWYDMGWVRQAPGKGLEWVSSIDWHGEVTYYADSVKGRFTISRDNSKNTLYLQMNSLRAEDTAVYYCATAEDEPGYDYWGQGTLVTVSS
B4: DOM10H-53-567 C-terminal AS (protein)
VH: GVQLLESGGGLVQPGGSLRLSCAASGFVFAWYDMGWVRQAPGKGLEWVSSIDWHGEVTYYADSVKGRFTISRDNSKNTLYLQMNSLRAEDTAVYYCATAEDEPGYDYWGQGTLVTVSSAS
B5: DOM10H-53-567 C-terminal A (protein)
VH: GVQLLESGGGLVQPGGSLRLSCAASGFVFAWYDMGWVRQAPGKGLEWVSSIDWHGEVTYYADSVKGRFTISRDNSKNTLYLQMNSLRAEDTAVYYCATAEDEPGYDYWGQGTLVTVSSA
B6: DOM10H-53-567 C-terminal ASTKG (protein)
VH: GVQLLESGGGLVQPGGSLRLSCAASGFVFAWYDMGWVRQAPGKGLEWVSSIDWHGEVTYYADSVKGRFTISRDNSKNTLYLQMNSLRAEDTAVYYCATAEDEPGYDYWGQGTLVTVSSASTKG
B7: DOM10H-53-567 C-terminal AST (protein)
VH: GVQLLESGGGLVQPGGSLRLSCAASGFVFAWYDMGWVRQAPGKGLEWVSSIDWHGEVTYYADSVKGRFTISRDNSKNTLYLQMNSLRAEDTAVYYCATAEDEPGYDYWGQGTLVTVSSAST
B8: DOM10H-53-567 C-terminal ASTK (protein)
VH: GVQLLESGGGLVQPGGSLRLSCAASGFVFAWYDMGWVRQAPGKGLEWVSSIDWHGEVTYYADSVKGRFTISRDNSKNTLYLQMNSLRAEDTAVYYCATAEDEPGYDYWGQGTLVTVSSASTK
B9: DOM1H-131-206 G44E, L108Q (other, name in Kabat numbering)
VH: B2 VH with G44E, L114Q
notes: VH dAb variant
B10: DOM1H-131-206 K43A (other, name in Kabat numbering)
VH: B2 VH with K43A
notes: VH dAb variant
B11: DOM1H-131-206 G44E, H91S (other, name in Kabat numbering)
VH: B2 VH with G44E, H95S
notes: VH dAb variant
B12: DOM1H-131-206 P14A, G44E (other, name in Kabat numbering)
VH: B2 VH with P14A, G44E
notes: VH dAb variant
B13: DOM1H-131-206 P41A (other, name in Kabat numbering)
VH: B2 VH with P41A
notes: VH dAb variant
B14: DOM1H-131-206 H91S (other, name in Kabat numbering)
VH: B2 VH with H95S
notes: VH dAb variant
B15: DOM1H-131-206 G44E (other, name in Kabat numbering)
VH: B2 VH with G44E
notes: VH dAb variant
B16: DOM1H-131-206 P14A, H91S (other, name in Kabat numbering)
VH: B2 VH with P14A, H95S
notes: VH dAb variant
B17: DOM1H-131-206 R83A (other, name in Kabat numbering)
VH: B2 VH with R87A
notes: VH dAb variant
B18: VHH2(f) + A (VHH)
VHH: EVQLVESGGGLVQPGGSLRLSCAASGRTFSYNPMGWFRQAPGKGRELVAAISRTGGSTYYPDSVEGRFTISRDNAKRMVYLQMNSLRAEDTAVYYCAAAGVRAEDGRVRTLPSEYTFWGQGTQVTVSSAAAEVQLVESGGGLVQPGGSLRLSCAASGRTFSYNPMGWFRQAPGKGRELVAAISRTGGSTYYPDSVEGRFTISRDNAKRMVYLQMNSLRAEDTAVYYCAAAGVRAEDGRVRTLPSEYTFWGQGTQVTVSSA
B19: Clone VHH2(f) (VHH)
VHH: EVQLVESGGGLVQPGGSLRLSCAASGRTFSYNPMGWFRQAPGKGRELVAAISRTGGSTYYPDSVEGRFTISRDNAKRMVYLQMNSLRAEDTAVYYCAAAGVRAEDGRVRTLPSEYTFWGQGTQVTVSSAAAEVQLVESGGGLVQPGGSLRLSCAASGRTFSYNPMGWFRQAPGKGRELVAAISRTGGSTYYPDSVEGRFTISRDNAKRMVYLQMNSLRAEDTAVYYCAAAGVRAEDGRVRTLPSEYTFWGQGTQVTVSS

target: T1, human TNFR1 (on human cells); assay: cell-based or functional assay

| Binder | IC50, inhibition of TNFα-induced IL-8, A549 human lung epithelium (n = 2) [nM] | IC50, inhibition of TNFα-induced IL-8, Human whole blood (n = 3-5) [nM] | IC50, inhibition of TNFα-induced IL-8, MRC5 human lung fibroblast (n = 3) [nM] |
| --- | --- | --- | --- |
| B1 | 1 | 0.9 | 3.5 |
| B2 | 1 | 1.6 | 4.8 |

target: T2, cynomolgus monkey TNFR1 (on monkey …); assay: cell-based or functional assay

| Binder | IC50, inhibition of LPS-induced IL-8, Cynomolgus monkey whole blood (n = 3) [nM] | IC50, inhibition of TNFα-induced IL-8, CYNOMK1 Cynomolgus monkey skin fibroblasts (n = 2) [nM] |
| --- | --- | --- |
| B1 | 0.4 | 4.7 |
| B2 | 0.5 | 4.8 |

target: pre-existing anti-VH ADA in human serum; assay: ADA confirmation assay (MSD) described previously, mean of 10 donor sera

| Binder | % inhibition in confirmation assay [%] |
| --- | --- |
| B3 | 95.1 |
| B4 | 14.8 |
| B5 | 12.8 |
| B6 | 13.4 |
| B7 | 29 |
| B8 | 27.7 |

target: T3, Recombinant human TNFR1-Fc; assay: ELISA: dAb on coated recombinant human TNFR1-Fc, anti-Vh detection

| Binder | EC50 [nM] |
| --- | --- |
| B9 | 1.64 |
| B10 | 0.67 |
| B11 | 3.5 |
| B12 | 2.03 |
| B13 | 0.59 |
| B14 | 0.96 |
| B15 | 0.86 |
| B16 | 0.75 |
| B17 | 0.76 |

target: pre-existing anti-VH ADA in human serum; assay: ADA confirmation assay of Example 2 (MSD): test material against labelled DOM1H-131-206

| Binder | Mean % Inhibition [%] |
| --- | --- |
| B18 | 17.5 |
| B19 | 94.2 |

target: T4, cynomolgus monkey TNFR1; assay: SPR (Biacore T100), same format with cynomolgus monkey TNFR1, dAb as analyte, 1:1 model

| Binder | Kd [nM] | koff [s⁻¹] | kon [M⁻¹ s⁻¹] |
| --- | --- | --- | --- |
| B1 | 0.0197 | 0.000189 | 9.6e+06 |
| B2 | 0.015 | 0.000151 | 1.01e+07 |

target: pre-existing anti-VH ADA in human serum; assay: ADA confirmation assay (MSD): 10 ug/mL test material against labelled DOM1H-131-206, mean of 10 sera

| Binder | Mean % inhibition of signal in confirmation assay |
| --- | --- |
| B1 | 15.7% |
| B2 | 96.1% and 99.5% |
| B9 | 91.3% |
| B10 | 99.5% |
| B11 | 99.1% |
| B12 | 61.6% |
| B13 | 87.3% |
| B14 | 99.4% |
| B15 | 99.5% |
| B16 | 50.2% |
| B17 | 99.3% |

target: pre-existing anti-VH ADA in human serum; assay: as above; remark: another data set of the same source

| Binder | Mean % inhibition of signal in confirmation assay [%] |
| --- | --- |
| B1 | 1.12 |

target: T3, Recombinant human TNFR1-Fc; assay: SPR (Biacore T100): TNFR1:Fc captured by anti-human IgG on a CM4 chip, dAb as analyte, 1:1 model

| Binder | Kd [nM] | koff [s⁻¹] | kon [M⁻¹ s⁻¹] |
| --- | --- | --- | --- |
| B1 | 0.0253 | 0.000229 | 9.02e+06 |
| B2 | 0.0143 | 0.000142 | 9.94e+06 |

target: pre-existing anti-VH ADA in human serum; assay: ADA confirmation assay (MSD): 10 ug/mL test material against labelled DOM1H-131-206; share of 10 ADA-positive sera with binding

| Binder | % subjects with ADA binding (10 subjects) (% of subjects) |
| --- | --- |
| B2 | 100 |
| B9 | 100 |
| B10 | 100 |
| B11 | 100 |
| B12 | 100 |
| B13 | 100 |
| B14 | 100 |
| B15 | 100 |
| B16 | 60 |
| B17 | 100 |
